Data taken from PMC5380960.

Target: LH2-G1 (wild-type LH2 with the N-terminal fragment of Gaussia luciferase fused to its C-terminus) (UniProt O00469)
Assay: split reporter (BiFC, NanoBiT); Gaussia luciferase protein-fragment complementation; LH2-G1 and FKBP65-G2 plasmids co-transfected 1:1 into 293F cells, 48 h, passive lysis buffer, luciferase activity of total cell lysates with 20 μM native coelenterazine

UniProt O00469, sequence (O00469 26-737): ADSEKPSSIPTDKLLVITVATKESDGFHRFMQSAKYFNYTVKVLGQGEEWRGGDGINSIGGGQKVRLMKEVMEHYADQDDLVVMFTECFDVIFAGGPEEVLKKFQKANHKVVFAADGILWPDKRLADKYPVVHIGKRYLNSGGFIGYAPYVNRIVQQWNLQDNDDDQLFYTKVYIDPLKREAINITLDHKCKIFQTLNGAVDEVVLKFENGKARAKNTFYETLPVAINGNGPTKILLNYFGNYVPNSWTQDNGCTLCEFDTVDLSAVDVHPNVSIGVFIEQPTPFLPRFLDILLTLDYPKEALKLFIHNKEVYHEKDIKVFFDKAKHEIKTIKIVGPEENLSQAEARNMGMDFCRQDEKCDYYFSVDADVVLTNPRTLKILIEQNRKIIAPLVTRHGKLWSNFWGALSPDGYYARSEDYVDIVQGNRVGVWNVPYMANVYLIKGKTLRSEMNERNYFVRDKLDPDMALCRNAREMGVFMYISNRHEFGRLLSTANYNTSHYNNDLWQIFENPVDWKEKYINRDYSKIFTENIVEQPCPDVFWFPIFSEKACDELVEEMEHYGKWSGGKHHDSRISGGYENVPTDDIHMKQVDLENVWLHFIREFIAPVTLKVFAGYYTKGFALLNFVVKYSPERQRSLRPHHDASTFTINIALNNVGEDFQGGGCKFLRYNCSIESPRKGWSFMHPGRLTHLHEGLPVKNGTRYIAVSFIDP

fold luciferase activity of co-transfected cells over either vector alone: 800 fold
Substance: FKBP65-G2 (FKBP65 with the C-terminal fragment of Gaussia luciferase fused to its C-terminus) (from UniProt Q96AY3 27-582) (enzyme)
